# Experiment: soluble on expression in E. coli; label from the status in PepcDB or PDB records
row,Sequence,soluble on expression in E. coli
1,MERDGCFGNCWLRRWEKSDMNRKGFGGHRDAKQLSRTKNRFARLDPDTQSRYEDDDEPAVPVRASLTSASSRGRGGSSRGFGQSAASIANTGVRNADIVYKCRATGAAKKVDAKWLIKQLNQIIENFKPLLWTDNARGDFEWYVRDEDTASTIRANNRRVVHKESGTRVEFYTSKVPAPWMKLKREEIEIIHRVVDKRHNAENRVLDLSNFHEDEEFKAKDMMMNLTKGNVMLTVLDHIDDKYGNIVALSLSNNRIRHLDYASALVSIAKFVMELDLSHNHISTEKELEKFAGLPVERFFFEGNPVVESFTQRAAYISYIHQSFPRCNMLDGVEVQPLVVGPDLDIHDAMPFRAGYYPNPQIRVLVEQFVTSYFDFYDGPDGQRTRRNLHNAYDADASTFSLTIEHLRGSSHARHHNDECFAQYAGVSHNVLKQERFARHRASRSARGAMDIAVALSKLPTSSHMRDTFIVDVFLQSNDLLGFTVQGLFCDGDLTQTPSPSFFSRSFLVSPRENDSVAVISDQLFITVASLDRLEKFKKLYDQSIANGAAVEQVSAVQIAQIGVNGMGFDGAPALPIREEMIKAMCQFSGMIPPFSEKCLADCAWNFDFACQKFNEIKSSVPAEAFAH,not soluble
2,MAHHHHHHMSVSSPLASSGEREQYGPQEQRQYGFVPVQMTNLVPVRVVSVHGDFFDMEIHQDAPLHIVQRAAEDCFKVRPELQLLTHNRKPINPNQSLRRNGCLLLKGDPFVKIVLDVKKGSRLNIVCQMAHCEPIPLACEAEDTIWDVKKKFCSSLEKSEVTPQRIRLLWRYWELNDKATVDYYHIPTNSKLTVMKKRDILGGQQTERRRAPSQRRRQDVQRRHERCDADTDDVAAWPKAPSVVPPYEKYRQASGREPLEGEDNRSKTPNANGSAQVVEGGADRDSHHPPIRAWPALPQEQFGRAVIPLYPIVPPLSGGSYYREPRAQTPDRRPAVVPVAEATQVVDFTEVQRLRMEVEELGRRMETCVTDRAEFSAMEESFRAAVTRVSELEASVGRVQNLLKRALHLM,not soluble
3,MGSDKIHHHHHHMTTAPLSWEELETLTDYQIDTVNGLTNAKARLRLFGQPESDVRVTLYRDNHAWCPYCQKVWLWLEEKQIPYRIEKVTMFCYGEKESWYKRKVPSGMLPAIELDGRIIKESDDILIALEKVFAPLNQGMEDRMVLPLRQLERLLFRAWCVWLCSRAGSSQQEQRNREQFIEMVARIEEALGRTPSPYFLDSFGIVDVIFTPYLERMNASLYYYKGYSLREENPRLSAWFAAMESRPTYCGTQSDFHTHAHDLPPQMGGCWENGETQMLLNKARVDNGPWFGLPDVAYPEPENSRMEALKRTIEHRINIIRVNPLDDKLFDQALRCALTHMMTGEDYVPPSGADVALRYLRDRINVPRDMSIYAAKRLRESLEKTAALAGDGQPDPIPTKHRRDQDPSNFVIK,not soluble
4,MGSDKIHHHHHHMVQAIDNTIATNFLTDAVVERHNFSQLNKTRIRFRIQLKKSTKSAAPKWADVLQAEVSEIESDLVKVTNSEVGLRGIKVFKKLDEAAAQLRQEIASVQEWMSADTGDWVCPIDLAPLVWNQLINIRDNIAPGLRNQLKADYEAGLVDYQERIDQFLSLNTWELAQDKQESVKANLLRAFPTLTDLEDYLQVVIGRPVIIPALSEQLNQQQAECLDQITKFIQQYDQNLEQRLRESALAGGEQLAAQLLEELADWEPGRKPVQFKKKMERHLMKVQVLLANADSEAGSSLEAMMTHLDSIVNDPAIESKNLGSDTRSQLQQKMQEIRIKLLDEQRNLQSLATEDVGLSKATVMSFKFR,not soluble
5,MFKHKKNEARNYSKMRESRYEYGTILKAHAAFVEIVTRPAPHRDNLPFNMSTLSVLIETSSCSWGMLASAHGDRTIGIILRAIVSFCNAHLGQSANNQLLVFAYGRNVDNKMIYSSTRCEDRNASFLVVKRLRELLSSDALTNDATIGAPLGPALAHAFCHMKKDSRVVTADPCDDSLGPQTTSEQSETASEKATNRAVVISITPIMGSEHGSLMNLFFSAAKQSICVDVVSMGDDFTGGILQQAADITGGSFLHAKKPQTLLKILMTNMLTDPTHRAVFSKLSHNSVDYRASCACHHQLVSSGWVCSICLSVLCQYTPICKVCKAAFTIANLPIKPNRKRAIRN,not soluble
6,MGSSHHHHHHSSGLVPRGSHMASMAKMRAVDAAMYVLEKEGITTAFGVPGAAINPFYSAMRKHGGIRHILARHVEGASHMAEGYTRATAGNIGVCLGTSGPAGTDMITALYSASADSIPILCITGQAPRARLHKEDFQAVDIEAIAKPVSKMAVTVREAALVPRVLQQAFHLMRSGRPGPVLVDLPFDVQVAEIEFDPDMYEPLPVYKPAASRMQIEKAVEMLIQAERPVIVAGGGVINADAAALLQQFAELTSVPVIPTLMGWGCIPDDHELMAGMVGLQTAHRYGNATLLASDMVFGIGNRFANRHTGSVEKYTEGRKIVHIDIEPTQIGRVLCPDLGIVSDAKAALTLLVEVAQEMQKAGRLPCRKEWVADCQQRKRTLLRKTHFDNVPVKPQRVYEEMNKAFGRDVCYVTTIGLSQIAAAQMLHVFKDRHWINCGQAGPLGWTIPAALGVCAADPKRNVVAISGDFDFQFLIEELAVGAQFNIPYIHVLVNNAYLGLIRQSQRAFDMDYCVQLAFENINSSEVNGYGVDHVKVAEGLGCKAIRVFKPEDIAPAFEQAKALMAQYRVPVVVEVILERVTNISMGSELDNVMEFEDIADNAADAPTETCFMHYE,soluble
7,MYKIVSDSACDLSKEYLEKHDVTIVPLSVSFDGETYYRDGVDITRDECYQRMVDDPKLFPKTSLPSVESYADVFRSFVEQGFPVVCFTITTLFSGSYNSAINAKSLVLEDYPDANICVIDSKQNTVTQALLIDQFVRMLEDGLSFEQAMSKLDALMASARIFFTVGSLDYLKMGGRIGKVATAATGKLGVKPVIIMKDGDIGLGGIGRNRNKLKNSVLQVAKKYLDENNKDNFIVSVGYGYDKEEGFEFMKEVESTLDVKLDSETNVAIGIVSAVHTGPYPIGLGVIRKYETL,soluble
8,MAHHHHHHMSVTIKLSNGSQKTVEVPDLNITVAKFKEIASAVTNIPADEQRVVLRGRVLKDGDVLSAMGMEHGQAVHIVRGQKSTKSDVASPSAQESASTQETQTNTNPQARPETVNPYAALAANLPASGGFSNNIPGNPNPGLQMPPELLSNMLQNPAFMQYFQEMMRNPQFLQQRMQQPQQQSQSQSPFGMNEGEMQRLLNNPMFMQLVLQMMSDPSIMQQLTQSLGGGFPASNTPLFGQQNAPAPNFAQNTGFFQPQGDPRVLYQSQLQQLREMGFTNEQANLAALEQAHGNIDFAIERLLNA,soluble
9,MGSDKIHHHHHHMVNNQLELEVKSFLEGQSDFANLPSSEITRLSQVIRKKKIRQGQWIFDQEDEFEYVFLMKEGHVKLFSMNLEGDMTSVSYIVPQMVFPLRGILQGRKYCYNAVAMCTSEVYILPIKEMRKIIVHHYAFTMAFMRRMEHRLHRSEKLLEKTTCSSAAQRVRQVLDYLNEDYAQTHGTVKKVPFKIFLKDLAVLSATTSETAGSVIKAMKEEKKVLYNNKIISFI,not soluble
10,MGSDKIHHHHHHMLSLSKPLQEFYRLDKCLSKHGTRFEFVNDKEIICSPDESNTHTFVILEGVVSLVRGDKVLIGIVQAPFIFGLADGVAKKEAQYKLIAESGCIGYRLSSSQTLAIIEQNQLWREAFCWIVWKSQVLELRDKQLIGNNSYDQIRATLMTMIEWDEELRSRIGVMNYIHQRTRVSRSVVAEVLAALRKGNYIEMNKGKLISINRLPSEY,not soluble
11,MGSDKIHHHHHHMDYRMCWLEYRGLPADVAGKLKDWFSSVSILEPGSSVLKDEIRRFSERSIGITPRFYSRPLKKEKYIMVGRLESLPIKLDVNLGEEGFMLRTIEWNGSKILLVTGETKKALVYGIFDLMKRIRLGEDIEKMNVLAKPKAKFRMLNHWDNLDGTIERGYAGNSIFFKDNRIIINQRTKDYARLLASIGINGVVINNVNVKKREVYLIDSIYLKKLKKLADIFREYGIKIYLSINFASPVYLGGLDTADPLDERVARWWREKARGIYDYIPDFGGFLVKADSEFNPGPHMFGRTHAEGANMLARALAPFGGVVIWRAFVYNCLQDWRDYKTDRAKAAYDNFKPLDGQFDDNVIIQIKYGPMDFQVREPVNPLFGGMEKTNQILELQITQEYTGQQIHLCFLGTLWKEILEFDTFAKGEGSYVKRIVDGTLFDRENNGFAGVSNVGDSVNWTGHDLAQANLYAFGRLAWNPDEEIERIVEEWIKLTFGDDEKVLENVSYMLMKSHRTYEKYTTPFGLGWMVNPGHHYGPNPEGYEYSKWGTYHRANWEAIGVDRTSRGTGYTLQYHSPWKEIYDDINTCPEDLLLFFHRVRYDHRLKSGKTLLQTMYDLHFEGVEEVEEFIKKWEELKDRVSPDIFERVKERLHMQLEHAKEWRDVINTYFYRRTGIPDEKGRKIYP,not soluble
12,MKIKIFIITSLIILTSVSCRRNVFNPSIPNRTQFVEDPIANLSIPSKDAAVEVIPVESIYKTGQTSLIYNWYIHFFDFNGKYYLTARDKCSYDSANKTMIITNNSYYNLLEIDVNDNFYMKEIRTNIDSSIPDDNRIINAFTKIVNGEAYTNADTIFIQDGGKYYSSKNIITWTEISQIPSDASKKEATDQYKIPITAQNGKTYTYVYASGAREFSISRLSDRMKQLAKRLETKFDFKEEDFNNHHMFDIGLNENGSSNPDFRLNPTNYLNNDTNYVYMGATDAAGQLWLLPVKKNGKDYLVRLPEHGGPELYIISDLQNDMNTYQTKAQESLTKALSLAASGGDTSAIEDACYESILNDANYKANKYFLDVIDKMGAKVNFGTTVYATSSKPITHYVIDIVDIQKD,not soluble
13,MGHHHHHHSHMHISGVFATKDAVAVWNGRQVAIFELSGAAIRSAGTFLCETPVLAMHEENVYTVESNRVQVRTWQGTVKQLLLFSETEGNPCFLDICGNFLVVGTDLAHFKSFDLSRREAKAHCSCRSLAELVPGVGGIASLRCSSSGSTISILPSKADNSPDSKICFYDVEMDTVTVFDFKTGQAWCLALVEVGPKGPSARDASAETRVWETPHALHLPAPPSWRGPGSVGKGSCER,not soluble
14,MGSDKIHHHHHHMDVIQLSNDGRCRWLEKQVMNKIFPQAIRSAKIKDIPTQYMIIDWISNDNGKVGVDLKWFKKLGVPYVKTYNDLPEGNDFVVVNTGYDSIVHEEKVLREKGVEILDKPCPFVRKLRKEFEKIDDSYQYVLLCESNHIIIKNFATIFPRDMILIQMGNYKEKLLEQSNGKPMMFISYVTFLKKHSIQVFDFINKTFPGKDHKMVDTQCMWAAGRLSPIDEIRNMSEDILKEVRYALLIGSPGSTNKSLMSLHETIIDKGLEVINIGSLRDFLDFRRKHKKEKVLLVKSPIPNQAEKPILAFLRHGYLYAYYTLWRER,not soluble
15,MTILNHTLGFPRVGLRRELKKAQESYWAGNSTREELLAVGRELRARHWDQQKQAGIDLLPVGDFAWYDHVLTTSLLLGNVPARHQNKDGSVDIDTLFRIGRGRAPTGEPAAAAEMTKWFNTNYHYMVPEFVKGQQFKLTWTQLLDEVDEALALGHKVKPVLLGPITWLWLGKVKGEQFDRLSLLNDILPVYQQVLAELAKRGIEWVQIDEPALVLELPQAWLDAYKPAYDALQGQVKLLLTTYFEGVTPNLDTITALPVQGLHVDLVHGKDDVVELHKRLPSDWLLSAGLINGRNVWRADLTEKYVQIKDIVGKRDLWVASSCSLLHSPIDLSVETRLDAEVKSWFAFALQKCHELALLCDALNSGDTAALAEWSAPIQARRHSTRVHNPAVEKRLAAITAQDSQRANVYEVRAEAQRARFKLPAWPTTTIGSFPQTTEIRTLRLDFKKGNLDANNYRTGIAEHIRQAIVEQERLGLDVLVHGEAERNDMVEYFGEHLDGFVFTQNGWVQSYGSRCVKPPIVIGDVSRPAPITVEWAKYAQSMTDKPVKGMLTGPVTILCWSFPREDVSRETIAKQIALALRDEVADLEAAGIGIIQIDEPALREGLPLRRSDWDAYLQWGVEAFRINAAVAKDDTQIHTHMCYCEFNDIMDSIAALDADVITIETSRSDMELLESFEEFDYPNEIGPGVYDIHSPNVPSVEWIEALLKKAAKRIPAERLWVNPDCGLKTRGWPETRAALANMVQAAQNLRRG,not soluble
